Data as given in patent US20220119506A1 (NOVOBIND LIVESTOCK THERAPEUTICS, published 2022).
Numbering of substitutions follows the chain as printed.

B1: NBX0633 (VHH)
VHH: QVQLQESGGGLVQPGGSLRLSCTASGTIFRSKSMAWYRQAPGQGRETVAHISGLGHTNYVESVKGRFTVSRDDAKNAVYLQMSSLKPEDTAVYYCNTFTAAFSWGQGTQVTVSS
notes: on phage in the phage ELISA
B2: NBX0643 (VHH)
VHH: QVQLQESGGGLVQAGGSLRLSCEASGSIFSGNVMGWYRQVPGKQRDLVATMTGGGVTRYADSVKARFTISRDNAKNTVYLQMNSLKPEDTGVYYCHYRRIMQQYWGQGTQVTVSS
notes: on phage in the phage ELISA
B3: NBX0650 (VHH)
VHH: B2 VHH with M34L, M51I, V56I, A65G, S84A, G91A
notes: on phage in the phage ELISA
B4: NBX0645 (VHH)
VHH: B2 VHH with E23A, M51I, V56I, R58H, A65G, G91A, H96L
notes: on phage in the phage ELISA
B5: NBX0646 (VHH)
VHH: B2 VHH with E23A, K43N, D46E, M51I, G91A, Y104S
notes: on phage in the phage ELISA
B6: NBX0644 (VHH)
VHH: B2 VHH with E23A, M51I, V56I, A65G, T77K, S84G, G91A, Y94F, H96F
notes: on phage in the phage ELISA
B7: NBX0647 (VHH)
VHH: B2 VHH with L11S, Q13P, A14P, E23A, G35A, T50S, K64I, A74V, G91A
notes: on phage in the phage ELISA
B8: NBX0813 (VHH)
VHH: QVQLQESGGGLVQAGGSLRLSCVVSGMLFSIRNMRWYRQAPGKQRELVAQIGSSGNTDYVESVKGRFTISRDNAKNTVYLQMNSLKPEDTAVYFCNALNYWGKGTLVTVSS
notes: on phage in the phage ELISA
B9: NBX0607 (VHH)
VHH: QVQLQESGGGLVQAGGSLRLSCAASGGTFSRLTMGWFRQAPGEEREFVAAVSWVAETTDYADSVKGRFSISRDNSKNTVYLQMNSLKPVDTAVYYCAAGPRDMIRSRNIRSYDSWGQGTQVTVSS
notes: on phage in the phage ELISA
B10: NBX0632 (VHH)
VHH: B9 VHH with E6Q, E56G, S69T, Y80H
notes: on phage in the phage ELISA
B11: NBX0629 (VHH)
VHH: B9 VHH with E6Q, M34I, E46V
notes: on phage in the phage ELISA
B12: NBX0619 (VHH)
VHH: B9 VHH with E6Q, S21F, S85N
notes: on phage in the phage ELISA
B13: NBX0844 (VHH)
VHH: QVQLQESGGGLAQTGDSLRLSCAASGRMFSGFVMGWYRQNPGKQRELVATITNGGLTHYGDSVKGRFTISRDNAKNTVYLQMNSLKSEDSAVYYCNARRLFTNYWGQGTQVTVSP
notes: on phage in the phage ELISA
B14: NBX0849 (VHH)
VHH: QVQLQESGGGLVQAGGSLRLSCAASGRTFNRYAMGWFRQAPGKEREFVAAISWSGNTQYTDSVKGRFTISRDDAKNTVYLQMNSLKPEDTAVYYCALRIPASSSTTYYYADQYDYWGQGTQVTVSS
notes: on phage in the phage ELISA
B15: NBX0841 (VHH)
VHH: QVQLQESGGGLVQAGGSLRLSCAASARTFIYKMGWFRQAPGKERDFVASIMWSVGNNYYYTDSAKGRFTISRDIAKNTMYLQMDSLEPEDTGEYYCAAATTSTQWRYWGQGTQVTVSS
notes: on phage in the phage ELISA
B16: NBX0621 (VHH)
VHH: QVQLQESGGGLVQAGGSLRLSCAASGRTFSTYSMGWFRQVPGKEREFVAAIRWSGGSRTYADSVKGRFTISRDNTKNVVYLQMTSLKPEDTAVYYCAADRDGYSSYAHQYDYWGQGTQVTVSS
notes: on phage in the phage ELISA
B17: NBX0628 (VHH)
VHH: B16 VHH with E6Q, A14V, T31S, S33A, R52K, K65A, S105R
notes: on phage in the phage ELISA
B18: NBX0649 (VHH)
VHH: QVQLQQSGGGLVQPGGSLTLSCAASGSIASGNVLGWYRQAPGKQRELVATITSGGLTHYKDSVKGRFTISRDNAKNMVFLQMNSLKPEDTAVYYCNYRRLATGYWGQGTQVTVSS
notes: on phage in the phage ELISA
B19: NBX0639 (VHH)
VHH: QVQLQESGGGLVQAGGSLRLSCAASGIVFSSIVMAWYRQAPGKQRELVASITNGGLVNSGDSVKGRFTISRDNAKNTVYLQMNSLKPEDTAVYYCNARRIMTSYWGQGTQVTVSS
notes: on phage in the phage ELISA
B20: NBX0641 (VHH)
VHH: QVQLQESGGGLVQAGGSLRLSCAASGSISNSYVMGWYRQAPGKQRELVATITSGGLTNYAQSLKGRFTISRDNAKNTVYLQMTSLEPEDTAVYYCNARVIFTTYWGQGTQVTVST
notes: on phage in the phage ELISA
B21: NBX0401 (VHH)
VHH: QVQLQQSGGGLVRAGGSLRLSCETSGRTFSSYTMGWFRQAPGKEREFVGTIDWWSSSSSYADSVKGRFTISRDNAKNTVYLQMNSLKPEDTAVYYCAASGKYGLAYSRRDYAYWGQGTQVTVSS
notes: on phage in the phage ELISA
B22: NBX0648 (VHH)
VHH: QVQLQESGGGLVQAGGSLRLSCEASGIIFSSNVMGWYRQAPGKQRELVASRTSGGLTNYADSAKGRFTISRDNAKNTVYLQMNSLKPEDTAVYYCNARRLFTNYWGQGTQVTVSS
notes: on phage in the phage ELISA
B23: NBX0642 (VHH)
VHH: QVQLQQSGGGLVQAGGSLRLSCVASTVTFSRYAMGWFRQAPGKEREVVAGISGSGHRTYYGDFVKGRFTISRDNAKKTVYLQMNNLKPEDTAVYYCAGDLVAKFDSAYRVSYDSWGQGTQVTVSS
notes: on phage in the phage ELISA
B24: NBX0618 (VHH)
VHH: QVQLQESGGGLVQPGGSLRLSCAASGSIFSFNAMGWYRQAPGKQRELVAAITKGGSTSYADSVKGRFTISVDNAKNTVYLQMNSLTPEDTAVYYCNVKTLRSALFPGYEYWGQGTQVTVSS
notes: on phage in the phage ELISA
B25: NBX0840 (VHH)
VHH: QVQLQQSGGGLVQAGGSLRLSCAASGSIRSSNVMGWYRQTPGKQRELVATMTAGGLTNYADSVKGRFTISRDNAKNTVYLQMNSLKPEDTAVYYCHYRRIFNVYWGQGTQVTVSS
notes: on phage in the phage ELISA
B26: NBX0836 (VHH)
VHH: QVQLQQSGGGLVQPGGSLRLSCSASGIRLGSYVMGYYRQAPGKQRELVATVTSGGTTNRADSVKGRFTISRDNAKNAVYLQMNSLKPEDTAVYYCNARILFTNYWGQGTQVTVSS
notes: on phage in the phage ELISA
B27: NBX0616 (VHH)
VHH: QVQLQESGGGLVQAGGSLRLSCATSGLTFSSYAMGWFRQAPGKEREFVATISWSGKSTRYSDSVKGRFTISRDNAKNTVYLQMNSLKPEDTAVYYCAADYQRLGLLRVGVAEYDYWGQGIQVTVSS
notes: on phage in the phage ELISA
B28: NBX0635 (VHH)
VHH: B27 VHH with S31N, P41A, S61A, Y80D, Q82R, D99E, V108D, E112D, D114S, I120T
notes: on phage in the phage ELISA
B29: NBX0605 (VHH)
VHH: QVQLQESGGGLVQPGGALRLSCAASGSFFSIYAMAWYRQAPGKQRELVAGITSGSETNYADSVKGRFTISRDNAKNTVYLQMNSLKLEDTAVYYCNRWAPLTRLDYWGQGTQVTVSS
notes: on phage in the phage ELISA
B30: NBX0828 (VHH)
VHH: QVQLQESGGGAVQAGGSLRLSCAGPRSIFSGNAMAWYRQVPGKQRETVATVNTGGLTWYGDFVKGRFTISRDDAKNTLLLQMDSLKPEDTAVYYCNAVLVRARGMWGQGTQVTVSS
notes: on phage in the phage ELISA
B31: NBX0402 (VHH)
VHH: QVQLQQSGGSLVQAGGSLRLSCAASGLPFINYAMGWFRQAPGKDREIVAAIDWNGDSTYYAVSVKGRFTISRDNAKNTVTLQMNSLKPEDTAIYYCASHYQPYIRVSATRRFEADYWGQGTQVTVSS
notes: on phage in the phage ELISA
B32: NBX0403 (VHH)
VHH: B31 VHH with S98A, H99D
notes: on phage in the phage ELISA
B33: NBX0834 (VHH)
VHH: QVQLQESGGGSVQAGGSLRLSCAASESMFRDHNMGWYRQAPGKQRELVATISRGGLINYGDSVRGRFTISRDNAKNTIYLQMNSLKVEDTAVYYCNARRLLTTVWGQGTQVTVSP
notes: on phage in the phage ELISA

Legend:
PirA = target: T1, PirA (Vibrio parahaemolyticus); assay: phage ELISA, antigen-coated wells
T1 construct: also called JHE-like toxin PirA-like; vp19
T1 chain: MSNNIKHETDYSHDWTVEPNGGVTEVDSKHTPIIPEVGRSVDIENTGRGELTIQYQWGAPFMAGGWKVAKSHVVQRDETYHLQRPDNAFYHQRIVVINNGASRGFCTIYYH

PirB = target: T2, PirB (Vibrio parahaemolyticus); assay: phage ELISA, antigen-coated wells
T2 construct: also called JHE-like toxin PirB-like
T2 chain: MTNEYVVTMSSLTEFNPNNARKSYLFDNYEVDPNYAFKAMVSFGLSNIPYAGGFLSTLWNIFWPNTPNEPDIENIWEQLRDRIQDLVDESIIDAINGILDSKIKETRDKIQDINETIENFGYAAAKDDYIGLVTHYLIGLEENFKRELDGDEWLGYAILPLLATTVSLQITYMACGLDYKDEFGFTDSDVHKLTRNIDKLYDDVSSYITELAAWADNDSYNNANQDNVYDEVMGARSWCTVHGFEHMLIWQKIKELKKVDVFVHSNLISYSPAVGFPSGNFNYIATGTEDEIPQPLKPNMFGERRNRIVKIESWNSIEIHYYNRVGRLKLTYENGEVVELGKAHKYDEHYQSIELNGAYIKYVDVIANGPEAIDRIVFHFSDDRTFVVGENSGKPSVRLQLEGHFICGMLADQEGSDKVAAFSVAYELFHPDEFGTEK

Row | Binder | binding above PBS-coated wells (PirA) [%] | binding above PBS-coated wells (PirB) [%]
1 | B1 | ≥ 50 | –
2 | B2 | – | ≥ 50
3 | B3 | – | ≥ 50
4 | B4 | – | ≥ 50
5 | B5 | – | ≥ 50
6 | B6 | – | ≥ 50
7 | B7 | – | ≥ 50
8 | B8 | ≥ 50 | –
9 | B9 | ≥ 50 | –
10 | B10 | ≥ 50 | –
11 | B11 | ≥ 50 | –
12 | B12 | ≥ 50 | –
13 | B13 | – | ≥ 50
14 | B14 | ≥ 50 | –
15 | B15 | – | ≥ 50
16 | B16 | ≥ 50 | –
17 | B17 | ≥ 50 | –

Row | Binder | binding above PBS-coated wells (PirA) [%] | binding above PBS-coated wells (PirB) [%]
18 | B18 | – | ≥ 50
19 | B19 | – | ≥ 50
20 | B20 | – | ≥ 50
21 | B21 | ≥ 50 | –
22 | B22 | – | ≥ 50
23 | B23 | – | ≥ 50
24 | B24 | ≥ 50 | –
25 | B25 | – | ≥ 50
26 | B26 | – | ≥ 50
27 | B27 | ≥ 50 | –
28 | B28 | ≥ 50 | –
29 | B29 | ≥ 50 | –
30 | B30 | – | ≥ 50
31 | B31 | ≥ 50 | –
32 | B32 | ≥ 50 | –
33 | B33 | – | ≥ 50
